Source: the supplement of paper PMC10567573

B1: C2CD2L (parent)
chain: LTLKVLRSSSCGDTELLGQATLPV
B2: SCNN1D (parent)
chain: IRVMVHGRNHTPFLGHHSFSVRPG

Variants of: B1
Test: protein stability index of a GFP-peptide fusion (GPS, HEK-293T) (PSI 1-6); higher = more stable
Settings: c terminus: a fixed tail appended
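Also: lentivirally expressed fusions sorted by FACS into six bins by GFP to DsRed ratio, PSI derived from sequencing read proportions per bin multiplied by bin number.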

Protein stability index of substitutions, site by site:
K4: N 1.19 | P 2.66 | S 1.18 | V 2.8 | W 2.53 | Y 3.27
V5: A 2.3 | C 1.76 | D 2.97 | E 2.82 | F 1.86 | G 2.52 | H 2.27 | I 2.08 | K 2.17 | L 2.75 | M 1.75 | N 2.26 | P 2.38 | Q 2.3 | R 2.05 | S 2.11 | T 1.83 | Y 2.69
L6: A 3.16 | C 1.69 | D 2.47 | E 2.49 | F 2.21 | G 1.96 | H 2.13 | I 2.83 | K 2.17 | N 2.19 | P 2.24 | Q 2.59 | R 2.03 | S 1.89 | T 1.26 | V 3.39 | Y 3.33
R7: A 1.19 | C 3.71 | D 2.02 | E 1.96 | G 1.37 | H 2.61 | K 3.05 | L 3.52 | M 2.32 | N 1.19 | P 2.08 | Q 1.33 | S 1.13 | T 2.88 | V 1.85
S8: D 1.93 | E 1.72 | F 4.03 | M 3.9 | N 3.13 | R 3.03 | W 4.16
S9: A 1.95 | C 1.76 | D 1.72 | E 1.1 | F 2.54 | H 2.94 | I 2.11 | K 1.4 | L 1.16 | M 3.09 | N 1.82 | P 1.71 | Q 1.43 | R 3.44 | V 1.09 | W 3.38
S10: A 3.7 | C 3.45 | D 2 | E 1.75 | F 2.93 | H 3 | I 1.76 | K 3.12 | L 2.44 | M 5.18 | N 1.67 | P 2.45 | Q 1.78 | T 3.38 | V 3.73 | W 4.07 | Y 3.53
C11: A 1.55 | D 1.8 | E 1.66 | G 2.58 | H 1.63 | I 4.68 | K 2.11 | L 2.78 | M 2.48 | N 2.04 | P 1.34 | Q 1.43 | R 1.9 | S 3.41 | T 2.36 | V 2.53 | Y 3.16
G12: A 1.66 | D 2.05 | E 1.88 | F 3.92 | H 1.97 | I 2.27 | K 2.95 | L 2.82 | M 3.71 | N 1.56 | P 1.82 | Q 2.12 | R 2.71 | S 1.92 | T 1.82 | V 1.99 | W 3.06 | Y 1.42
D13: C 3.28 | F 3.62 | G 4.31 | I 3.63 | N 2.85 | P 2.02 | Q 2.24 | R 1.47 | S 2.38 | T 3.72 | W 3.58 | Y 2.16
T14: A 3.11 | C 1.79 | D 2.2 | E 2.58 | G 3.33 | H 2.47 | K 1.04 | M 2.03 | N 1.91 | P 2.74 | Q 1.95 | R 2.06 | S 1.8 | Y 3.11
E15: A 3.85 | D 1.41 | F 3.12 | I 3.24 | L 3.22 | N 3.3 | P 2.61 | Q 2.47 | S 3.58 | T 2.83 | Y 2.19
L16: A 1.79 | C 2.07 | D 2.69 | F 2.34 | G 1.97 | H 1.43 | I 2.19 | K 1.9 | M 1.86 | N 1.92 | P 1.97 | Q 1.78 | R 1.8 | S 1.72 | T 2.01 | V 4.08 | Y 1.37
L17: A 2.08 | C 2.18 | D 2.89 | E 2.7 | F 2.92 | G 1.86 | H 1.24 | I 2.4 | K 2.05 | M 1.11 | N 3.12 | P 2.15 | Q 2.1 | R 1.35 | S 1.28 | T 1.92 | V 2.44 | W 2.04 | Y 1.57
G18: A 1.97 | C 2.07 | D 2.28 | E 2.26 | F 2.89 | H 1.43 | K 1.71 | L 3.01 | M 2.32 | N 2.11 | P 2.11 | Q 1.78 | R 2.06 | S 1.97 | T 1.18 | V 2.88 | Y 1.77
Q19: C 4.52 | D 1.61 | E 2.86 | F 3.05 | G 1.91 | H 2.94 | I 4.42 | K 2.78 | M 3.83 | N 3.21 | P 2.06 | S 2.79 | T 1.59 | V 1.43 | W 3.5 | Y 3.56
A20: D 1.45 | E 2.1 | G 1.03 | H 1.23 | I 2.35 | K 3.04 | L 2.33 | M 2.92 | N 2.49 | P 1.96 | Q 2.09 | R 1.44 | S 1.48 | T 1.79 | W 3.17
T21: A 1.09 | C 1.68 | D 1.57 | E 1.58 | F 3.74 | G 2.94 | H 2.21 | K 2.08 | L 2.39 | M 2.27 | N 2.36 | P 2.22 | Q 1.58 | R 3.3 | S 2.06 | V 2.34 | Y 3.37
L22: A 2.46 | C 2.52 | D 2.67 | E 1.74 | G 1.75 | H 1.54 | I 2.36 | K 1.97 | M 1.56 | N 2.32 | P 1.87 | Q 1.28 | R 1.6 | S 1.61 | T 1.75 | V 2.75 | W 2.21 | Y 3.26
P23: A 3.27 | C 3.55 | F 1.57 | G 4.54
V24: A 2.59 | D 1.64 | E 1.54 | F 2.7 | G 2.02 | H 1.37 | K 1.85 | M 4.58 | N 1.92 | P 2.41 | Q 1.82 | R 3.59 | S 1.98 | T 1.81

Variants of: B2
Test: as above
Settings: c terminus: a fixed tail appended

Protein stability index, by site and new letter:
L14: W 2.98 | Q 2.67 | I 2.76 | N 2.43
N9: V 3.7
V3: P 2.75 | H 2.07 | G 2.33 | L 2.11 | S 2.13
F19: M 1.87 | R 1.09 | D 1.53
R22: M 3.3
R2: G 2.91 | A 2.26 | P 1.76 | Q 1.58
P23: N 2.25 | Q 1.64
I1: E 2.04 | S 3.19 | T 2.62
G15: E 4.06
H17: Y 4.62
H16: Q 3.16
F13: A 4.08
G7: R 2.12 | M 2.97
